# Test results as given in article PMC8189464, “SARS-CoV-2 Envelope (E) protein interacts with PDZ-domain-2 of host tight junction protein ZO1” (PLoS ONE, 2021).
# *: point of attachment. Biotin = O=C1N[C@H]2[C@H](CS[C@H]2CCCCC(=O)*)N1
# T1: GST-PDZ domain #2 of human Zona Occludens-1 (ZO1) (human, UniProt Q07157 186-264)
# T1 construct: second PDZ domain (PDZ domain #2) of human Zona Occludens-1 (ZO1), from plasmid pGEX-ZO1-2/3; also called GST-ZO1 PDZ domain #2; GST-ZO1-PDZ-2; source: E. coli BL21(DE3), purified (glutathione-Sepharose 4B); on the array: purified GST fusion protein
# T1 sequence (looked up): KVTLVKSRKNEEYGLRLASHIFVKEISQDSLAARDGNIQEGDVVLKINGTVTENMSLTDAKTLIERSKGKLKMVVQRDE
# Biological target: T1, GST-PDZ domain #2 of human Zona …
# Assay: AlphaScreen or HTRF; GST protein pre-bound to anti-GST-terbium donor antibody, biotinylated peptide pre-bound to streptavidin-d2 acceptor; serial 1:2 dilutions of both in a matrix; 25 mM HEPES pH 7.4, 150 mM NaCl, 5 mM MgCl2, 0.005% Tween-20; 1 hr incubation; one-site saturation binding fit; Kd at 3 nM GST-ZO1 PDZ domain #2
# Details: both partners purified
binder,measurement,value
Biotin-SRVKNLNSSRVPDLLV-OH (also called WT E peptide; Bt-WT peptide) [SARS-CoV-2 E WT peptide (Biotin-SRVKNLNSSRVPDLLV-COOH)],Kd,0.029 µM
